Measured values: patent US20250186541A1, “DLL3 TARGETING PEPTIDES AND CONSTRUCTS THEREOF” (MARIANA ONCOLOGY INC., priority 2023, published 2025)
Bridge positions count the residues as written; N and C are the ends. Square brackets hold non-standard residues; d marks the D form. * marks the point of attachment. DOTA = O=C(O)CN1CCN(CC(=O)O)CCN(CC(=O)*)CCN(CC(=O)O)CC1; NMeQ = CN[C@@H](CCC(N)=O)C(=O)O; Chg = N[C@H](C(=O)O)C1CCCCC1; Ahx = NCCCCCC(=O)O

T1: Biotinylated human DLL3 (human, UniProt Q9NYJ7 27-492, biotinylated (site not stated))
T1 construct: also called Delta-like ligand 3; Delta Like Canonical Notch Ligand 3
T1 sequence (looked up): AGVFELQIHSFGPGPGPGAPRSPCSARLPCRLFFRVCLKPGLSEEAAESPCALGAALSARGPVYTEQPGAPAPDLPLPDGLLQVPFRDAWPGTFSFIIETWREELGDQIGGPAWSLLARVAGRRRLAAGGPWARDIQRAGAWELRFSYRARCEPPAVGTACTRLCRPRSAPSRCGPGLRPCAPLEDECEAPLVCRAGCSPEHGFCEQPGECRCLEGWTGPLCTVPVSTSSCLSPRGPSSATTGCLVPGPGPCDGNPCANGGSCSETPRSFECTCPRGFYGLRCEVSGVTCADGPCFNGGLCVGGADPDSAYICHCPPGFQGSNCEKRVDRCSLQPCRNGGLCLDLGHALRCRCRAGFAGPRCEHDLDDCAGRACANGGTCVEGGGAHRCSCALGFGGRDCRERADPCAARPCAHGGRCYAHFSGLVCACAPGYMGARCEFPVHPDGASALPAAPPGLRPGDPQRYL

B1: Cpd #5 (peptide)
peptide: Ac-SDCWLQWNCPFD-NH2
modifications: disulfide 3-9
B2: Cpd #99 (peptide)
peptide: Ac-[Chg]SDCWLQK(DOTA)NCPFD-NH2
modifications: disulfide 4-10
SMILES: CC(=O)N[C@H](C(=O)N[C@@H](CO)C(=O)N[C@@H](CC(=O)O)C(=O)N[C@H]1CSSC[C@@H](C(=O)N2CCC[C@H]2C(=O)N[C@@H](Cc2ccccc2)C(=O)N[C@@H](CC(=O)O)C(N)=O)NC(=O)[C@H](CC(N)=O)NC(=O)[C@H](CCCCNC(=O)CN2CCN(CC(=O)O)CCN(CC(=O)O)CCN(CC(=O)O)CC2)NC(=O)[C@H](CCC(N)=O)NC(=O)[C@H](CC(C)C)NC(=O)[C@H](Cc2c[nH]c3ccccc23)NC1=O)C1CCCCC1
B3: Cpd #93 (peptide)
peptide: {DOTA-Ahx}-SDCWL[NMeQ]WNCPFD-NH2
modifications: disulfide 3-9
B4: Cpd #97 (peptide)
peptide: Ac-[Chg]SDCK(DOTA)LQWNCPFD-NH2
modifications: disulfide 4-10
SMILES: CC(=O)N[C@H](C(=O)N[C@@H](CO)C(=O)N[C@@H](CC(=O)O)C(=O)N[C@H]1CSSC[C@@H](C(=O)N2CCC[C@H]2C(=O)N[C@@H](Cc2ccccc2)C(=O)N[C@@H](CC(=O)O)C(N)=O)NC(=O)[C@H](CC(N)=O)NC(=O)[C@H](Cc2c[nH]c3ccccc23)NC(=O)[C@H](CCC(N)=O)NC(=O)[C@H](CC(C)C)NC(=O)[C@H](CCCCNC(=O)CN2CCN(CC(=O)O)CCN(CC(=O)O)CCN(CC(=O)O)CC2)NC1=O)C1CCCCC1

Target: T1, Biotinylated human DLL3
Test: SPR, biotin-hDLL3 on SA chip

Binding result, no binding:
B1
B2
B3
B4
